The target of data set [1] is T1, MurT/GatD (Streptococcus pneumoniae, UniProt Q8DNZ8+Q8DNZ9).
T1 construct: co-expressed in E. coli BL21 Star (DE3) from modified pET-30; MurT with N-terminal poly-His tag (cleavage not mentioned), GatD untagged; MurT/GatD heterodimer (four complexes in the asymmetric unit); MurT residues 1-42 present but not visible
T1 sequence (Q8DNZ9 1-447): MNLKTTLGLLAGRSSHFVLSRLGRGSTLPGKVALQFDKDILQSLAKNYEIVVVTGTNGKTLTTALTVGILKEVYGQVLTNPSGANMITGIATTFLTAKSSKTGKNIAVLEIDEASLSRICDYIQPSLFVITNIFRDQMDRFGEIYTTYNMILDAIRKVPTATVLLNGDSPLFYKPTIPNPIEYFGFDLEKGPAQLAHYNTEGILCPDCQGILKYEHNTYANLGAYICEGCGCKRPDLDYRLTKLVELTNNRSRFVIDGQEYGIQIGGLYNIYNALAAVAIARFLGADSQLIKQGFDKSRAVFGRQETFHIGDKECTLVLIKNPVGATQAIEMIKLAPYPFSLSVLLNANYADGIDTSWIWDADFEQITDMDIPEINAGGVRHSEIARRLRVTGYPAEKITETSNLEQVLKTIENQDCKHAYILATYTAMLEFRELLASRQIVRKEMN
T1 sequence (Q8DNZ8 1-260): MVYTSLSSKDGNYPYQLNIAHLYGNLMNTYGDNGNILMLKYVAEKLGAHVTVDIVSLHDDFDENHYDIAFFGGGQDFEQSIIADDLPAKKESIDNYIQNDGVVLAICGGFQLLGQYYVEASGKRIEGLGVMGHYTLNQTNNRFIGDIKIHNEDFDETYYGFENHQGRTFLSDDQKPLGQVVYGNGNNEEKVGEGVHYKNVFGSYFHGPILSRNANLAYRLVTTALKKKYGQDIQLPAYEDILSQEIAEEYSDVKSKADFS
Put plainly: X-ray crystal structure, […] Å. Type of data set: binding. Particulars: tentative assignment to residual density near GatD Cys107; no glutamine added, presumably carried over from E. coli.

In data set [2] the target is MurT variants with substituted conserved residues ("in most cases"). Put plainly: co-purification (metal-affinity chromatography of His-tagged MurT, SEC; SDS-PAGE with Coomassie stain, ratio of bands); His-tagged MurT (wild type or variant) co-expressed with untagged GatD in E. coli; lysate loaded on HisTrap FF in 50 mM HEPES pH 7.5, 300 mM NaCl, 10 mM MgCl2, 25 mM imidazole, 2 mM TCEP; then SEC.

The target of data set [3] is T1, MurT/GatD. Nature of the data set: coupled ATPase assay (pyruvate kinase / lactate dehydrogenase, NADH at […] nm), initial velocities. Type of data set: biochemical. Particulars: 2 mM ATP, 10 mM L-Gln, 10 mM MgCl2, 150 mM NaCl, 50 mM HEPES, 2 mM TCEP, 1% DDM, pH 7.5, 30 °C; MurT active site; read-out: Initial velocities method / Apparent KM.
Substrate in data set [4]: Nc1ncnc2c1ncn2[C@@H]1O[C@H](COP(=O)(O)OP(=O)(O)OP(=O)(O)O)[C@@H](O)[C@H]1O
Put plainly: purified protein. Format: biochemical, Streptococcus pneumoniae. Particulars: 10 mM L-Gln, 10 μM lipid II (below its apparent KM), 10 mM MgCl2, 150 mM NaCl, 50 mM HEPES, 2 mM TCEP, 1% DDM, pH 7.5, 30 °C, MurT active site.

Substrate in data set [5]: NC(=O)CC[C@H](N)C(=O)O
Put plainly: purified protein. Type of data set: biochemical, Streptococcus pneumoniae. Particulars: 2 mM ATP, 10 μM lipid II (below its apparent KM), 10 mM MgCl2, 150 mM NaCl, 50 mM HEPES, 2 mM TCEP, 1% DDM, pH 7.5, 30 °C, GatD glutaminase site.

In data set [6] the target is T2, MurT 4C4S variant (the four cysteines of the cysteine tetrad replaced by serines), with N-terminal … (Streptococcus pneumoniae, UniProt Q8DNZ9 1-447, 4C4S (Cys205 to Ser) | 4C4S (Cys208 to Ser) | 4C4S (Cys227 to Ser) | 4C4S …).
T2 construct: MurT, Streptococcus pneumoniae, with cysteines 205, 208, 227 and 230 replaced by serines; PDB 6FQB holds the wild-type parent; also called MT4C4S; 4C4S MurT/GatD; source: E. coli BL21 Star (DE3), co-expressed with GatD; purified (HisTrap, SEC); not shown: poly-histidine, N-terminal, kept
T2 sequence: T1 sequence (Q8DNZ9 1-447) with C205S, C208S, C227S, C230S
Nature of the data set: co-purification (metal-affinity chromatography of His-tagged MurT, SEC; SDS-PAGE with Coomassie stain, ratio of bands); His-tagged MurT (wild type or variant) co-expressed with untagged GatD in E. coli; lysate loaded on HisTrap FF in 50 mM HEPES pH 7.5, 300 mM NaCl, 10 mM MgCl2, 25 mM imidazole, 2 mM TCEP; then SEC. Particulars: partners not purified.

For data set [7], the target named is T3, MurT from Streptococcus pneumoniae, wild type, with N-terminal poly-histidine tag (Streptococcus pneumoniae, UniProt Q8DNZ9 1-447).
T3 construct: MurT, subunit of the lipid II amidotransferase MurT/GatD, Streptococcus pneumoniae; N-terminal region 1-42 present by mass spectrometry though not visible in the crystal; central domain 43-302, C-terminal domain 303-439; also called MT; source: E. coli BL21 Star (DE3), co-expressed with GatD from a modified pET-30 plasmid; purified (HisTrap, Q Sepharose, SEC; anion exchange omitted for activity …)
T3 sequence: T1 sequence (Q8DNZ9 1-447)
Described as above. Particulars: partners not purified.

These results are taken from PMC6085368, “Structure of the essential peptidoglycan amidotransferase MurT/GatD complex from Streptococcus pneumoniae” (Nature Communications, 2018).

Where a chain is given by its changes, count along the chain named.

With `NC(=O)CC[C@H](N)C(=O)O` [L-Gln], at MurT/GatD [1], the “X-ray crystal structure, 3.0 Å” value is recorded as “glutamine was thus tentatively placed in the residual density observed in GatD active site”.

With “GatD from Streptococcus pneumoniae, wild type, without tag (from UniProt Q8DNZ8 1-260) (enzyme)”, in data set [2], the ratio of MurT/GatD bands was determined as 1.78.

With lipid II, on MurT/GatD [3], the Km was determined as 220 ± 60 µM.

B1: MurT/GatD (Streptococcus pneumoniae R6) (protein)
chain 1: T1 sequence (Q8DNZ9 1-447)
chain 2: T1 sequence (Q8DNZ8 1-260)
notes: co-expressed in E. coli BL21 Star (DE3) from modified pET-30; MurT with N-terminal poly-His tag (cleavage not mentioned), GatD untagged; MurT/GatD heterodimer (four complexes in the asymmetric unit); MurT residues 1-42 present but not visible
Regarding B1, the Km in the data set “purified protein [4]” was determined as 16 ± 2 µM; in “purified protein [5]” it was 78 ± 8 µM.

B2: GatD from Streptococcus pneumoniae, wild type, without tag (enzyme)
chain: T1 sequence (Q8DNZ8 1-260)
notes: GatD, class I glutaminase subunit of the MurT/GatD amidotransferase, Streptococcus pneumoniae; also called GD; GatDSpn; source: E. coli BL21 Star (DE3), co-expressed with His-tagged MurT from a modified pET-30 plasmid; co-purified with MurT (HisTrap, Q Sepharose, SEC)
For the molecule B2, the “ratio of the Coomassie-stained MurT/GatD bands after SDS-PAGE” value in data set [6] was determined as 1.4; in data set [7], 1.78.
